Data on four molecules can be found in patent US8409836B2, “Treatment of cellulosic material and enzymes useful therein” (Roal Oy, priority 2005, dated 2013).

Data set [1] is described as follows: Hydrolysis with endoglucanase preparations, corn stover. Format: biochemical. Conditions: 48 h, 45° C., pH 5.0. The protocol: (§1) The preparations containing the endoglucanases were compared in hydrolysis studies mixed with the purified CBH/Cel7 and CBH/Cel6 enzymes on several pre-treated substrates. Culture filtrates of T. reesei, containing different cloned endoglucanase enzymes were obtained as described in Example 19. The enzymes were enriched by removing thermolabile proteins from the mixtures by a heat treatment (60° C., 2 h, pH 5) and the supernatant was used for the hydrolysis studies. In addition, pure T. reesei cellulases (purified as described by Suurnäkki et al., 2000) were used in the enzyme mixtures. The endoglucanases used in the experiment were:
Steam exploded corn stover fibre (steam pre-treatment at 210° C. for 5 min), dry matter 31.0% (SECS).
(§2) The endoglucanases to be studied (dosage 840 nkat/g dry matter, based on endoglucanase activity against HEC according to IUPAC, 1987) were used either with cellobiohydrolases of T. reesei (CBHI/Cel7A, 8.1 mg/g d.m. and CBHII/Cel6A, 2.0 mg/g d.m.) or with Thermoascus aurantiacus Cel7A with genetically attached CBD of T. reesei (10.1 mg/g d.m.). Purified (Suurnäkki et al., 2000) EGI (Cel7B) and EGII (Cel5A) of T. reesei were also included in the experiments for comparison. All mixtures were supplemented with additional β-glucosidase from Novozym 188 (to make the total β-glucosidase dosage 560 nkat/g d.w., the relatively high dosage was used to compensate the differences in the background activities of the different EG preparations). Triplicate tubes were incubated in mixing at 45° C. for 48 h and reference samples with inactivated enzymes and corresponding substrates were prepared. The release of hydrolysis products was measured as reducing sugars with DNS method using glucose as standard (Table 31).

Data set [2] is described as follows: Hydrolysis with endoglucanase preparations, spruce. It is filed as biochemical. Conditions: 48 h, 45° C., pH 5.0. The protocol: as §1
Washed steam pre-treated spruce fibre (impregnation with 3% SO2 for 20 min, followed by steam pre-treatment at 215° C. for 5 min), dry matter 25.9% (SPRUCE).
as §2

A short description of data set [3]: Isoelectric focusing (PhastSystem), pI of purified protein. Format: physicochemical. The note with it: IEF gel. How it is done:
The sample was dissolved in water and applied to a Superdex 75 HR 10/30 gel filtration column equilibrated with 20 mM sodium phosphate pH 6.0, containing 0.15 M NaCl. Fractions were collected and those containing endoglucanase activity were combined. The protein eluate was judged to be pure by SDS-polyacrylamide gel electrophoresis and the molecular mass was evaluated on the basis of molecular mass standards (prestained SDS-PAGE standards, Broad Range, Bio-Rad) to be 54 kDa. The pI of the purified protein, designated as Ct EG—54 was determined with PhastSystem (Pharmacia) to be ca 5.5.
The sample was applied to a Sephacryl S-100 HR 26/60 gel filtration column equilibrated with 50 mM sodium acetate buffer pH 5.0, containing 0.05 M NaCl. The protein fraction containing endoglucanase activity was eluted from the column with a retention volume corresponding to a molecular weight of 16 kDa. Collected fractions were combined, concentrated and gel filtration was repeated. The protein eluate was judged to be pure by SDS-polyacryl amide gel electrophoresis and the molecular weight was evaluated to be 28 kDa. The pI of the purified protein, designated as Ta EG—28, was determined in an IEF gel (PhastSystem, Pharmacia) to be about 3.5. The specific activity of Ta EG—28 at 50° C. was determined to be 4290 nkat/mg (procedure of IUPAC 1987, using CMC as substrate).
The active material from the anion exchange chromatography was applied to a Sephacryl S-300 HR 26/60 column equilibrated with 20 mM sodium phosphate pH 6.5, containing 0.15 M NaCl. The protein with β-glucosidase activity was eluted with a retention volume corresponding to a molecular weight of 243 kDa. The protein was judged to be pure by SDS-polyacrylamide gel electrophoresis and the molecular weight was evaluated to be 101 kDa. The pI of the purified protein, designated as At βG—101, was determined in an IEF gel (PhastSystem, Pharmacia) to be in the area of 5.6-4.9. The specific activity of At βG—101 at 50° C. was determined to be 1100 nkat/mg (using 4-nitrophenyl-β-D-glucopyranoside as substrate, Bailey and Linko, 1990).
The active material from the cation exchange chromatography was applied to a Sephacryl S-300 HR 26/60 column equilibrated with 20 mM sodium phosphate pH 7.0, containing 0.15 M NaCl. The protein with β-glucosidase activity was eluted with a retention volume corresponding to a molecular weight of 294 kDa. […] The protein was judged to be pure by SDS-polyacrylamide gel electrophoresis and the molecular weight was evaluated to be 81 kDa, representing most likely the monomeric form of the protein. […] The specific activity of the purified protein, designated as Ta βG—81, at 50° C. was determined to be 600 nkat/mg using 4-nitrophenyl-β-D-glucopyranoside as substrate (Bailey and Linko, 1990). […]

A short description of data set [4]: Hydrolysis with CBH enzyme mixtures, Avicel. It is filed as biochemical. The note with it: additional enzymes EGII, bG; 48 h, 45° C., pH 5.0. The protocol:
(§3) The performance of the purified recombinant cellobiohydrolases was evaluated in the hydrolysis studies with purified T. reesei enzymes. Hydrolysis was carried out with controlled mixtures of purified enzymes on several pre-treated substrates. […] In addition, pure T. reesei cellulases (purified as described by Suurnäkki et al., 2000) were used in the enzyme mixtures. The cellobiohydrolases used in the experiment were:
(§4) Each CBH/Cel7 to be tested (dosage 14.5 mg/g dry matter of substrate) was used either together with EGII/Cel5A of T. reesei (3.6 mg/g) or with a mixture containing T. reesei EGI/Cel7B (1.8 mg/g), EGII/Cel5A (1.8 mg/g), xylanase pI 9 (Tenkanen et al. 1992) (5000 nkat/g) and acetyl xylan esterase (AXE) (Sundberg and Poutanen, 1991) (250 nkat/g). All mixtures were supplemented with additional β-glucosidase from a commercial enzyme preparation Novozym 188 (176 nkat/g d.w.). Triplicate tubes containing the enzyme mixture and 10 mg (dry matter)/ml of the substrate suspended in 0.05 M sodium acetate were incubated in mixing by magnetic stirring at 45° C. for 48 h. Reference samples with inactivated enzymes and corresponding substrates were also prepared. The release of hydrolysis products was measured as reducing sugars with DNS method using glucose as standard (Table 30).
Crystalline cellulose (Avicel)

A short description of data set [5]: Hydrolysis with CBH enzyme mixtures, willow. It is filed as biochemical. Conditions: additional enzymes EGII, bG, 48 h, 45° C., pH 5.0. How it is done:
as §3, §4
Washed steam pre-treated willow fibre (pre-treatment for 14 min at 210° C.), dry matter 23.0% (WILLOW).

Data set [6] in a line: Hydrolysis with CBH enzyme mixtures, corn stover. It is filed as biochemical. The note with it: additional enzymes EGII, bG, 48 h, 45° C., pH 5.0. How it is done: as §3, §4
Washed wet oxidized corn stover fibre (WOCS).

Data set [7] can be described thus: Hydrolysis with CBH enzyme mixtures, spruce. Format: biochemical. Conditions: additional enzymes EGII, bG; 48 h, 45° C., pH 5.0. The protocol: as §3, §4
Washed steam pre-treated spruce fibre (impregnation with 3% w/w SO2 for 20 min, followed by steam pre-treatment at 215° C. for 5 min), dry matter 25.9% (SPRUCE).

The mark [8] stands for this setting: with CBHI and CBHII of T. reesei.
Where [9] appears, read: with T. aurantiacus Cel7A + Tr CBD.

B1: EGII: endoglucanase II (Cel5A) of T. reesei, reference enzyme (protein, UniProt P07982 22-418, looked up)
Endoglucanase EG-II: QQTVWGQCGGIGWSGPTNCAPGSACSTLNPYYAQCIPGATTITTSTRPPSGPTTTTRATSTSSSTPPTSSGVRFAGVNIAGFDFGCTTDGTCVTSKVYPPLKNFTGSNNYPDGIGQMQHFVNEDGMTIFRLPVGWQYLVNNNLGGNLDSTSISKYDQLVQGCLSLGAYCIVDIHNYARWNGGIIGQGGPTNAQFTSLWSQLASKYASQSRVWFGIMNEPHDVNINTWAATVQEVVTAIRNAGATSQFISLPGNDWQSAGAFISDGSAAALSQVTNPDGSTTNLIFDVHKYLDSDNSGTHAECTTNNIDGAFSPLATWLRQNNRQAILTETGGGNVQSCIQDMCQQIQYLNQNSDVYLGYVGWGAGSFDSTYVLTETPTSSGNSWTDTSLVSSCLARK
For B1, the “Hydrolysis products as reducing sugars, SECS” value in data set [1] (setting [8]) is 3.5 mg/mL. For the same molecule, the “Hydrolysis products as reducing sugars, SPRUCE” value stood at 3.8 mg/mL in data set [2] (setting [8]) and 3.2 mg/mL in data set [2] (setting [9]).

B2: EGI: endoglucanase I (Cel7B) of T. reesei, reference enzyme (protein, UniProt P07981 23-459, looked up)
Endoglucanase EG-1: QQPGTSTPEVHPKLTTYKCTKSGGCVAQDTSVVLDWNYRWMHDANYNSCTVNGGVNTTLCPDEATCGKNCFIEGVDYAASGVTTSGSSLTMNQYMPSSSGGYSSVSPRLYLLDSDGEYVMLKLNGQELSFDVDLSALPCGENGSLYLSQMDENGGANQYNTAGANYGSGYCDAQCPVQTWRNGTLNTSHQGFCCNEMDILEGNSRANALTPHSCTATACDSAGCGFNPYGSGYKSYYGPGDTVDTSKTFTIITQFNTDNGSPSGNLVSITRKYQQNGVDIPSAQPGGDTISSCPSASAYGGLATMGKALSSGMVLVFSIWNDNSQYMNWLDSGNAGPCSSTEGNPSNILANNPNTHVVFSNIRWGDIGSTTNSTAPPPPPASSTTFSTTRRSSTTSSSPSCTQTHWGQCGGIGYSGCKTCTSGTTCQYSNDYYSQCL
For the molecule B2, the “Hydrolysis products as reducing sugars, SECS” value is 4.6 mg/mL in data set [1] (setting [8]) and 4.2 mg/mL in data set [1] (setting [9]). Besides, the “Hydrolysis products as reducing sugars, SPRUCE” value in data set [2] (setting [8]) turned out to be 3.5 mg/mL.

B3: Ct EG_54: endoglucanase of Chaetomium thermophilum ALKO4261, gene Ct cel7B, amino acid SEQ ID NO: 16 (protein)
chain: MTRKFALVPLLLGLASAQKPGNTPEVHPKITTYRCSHRQGCRPETNYIVLDSLTHPVHQLNSNANCGDWGNPPPRSVCPDVETCAQNCIMEGIQDYSTYGVTTSGSSLRLKQIHQGRVTSPRVYLLDKTEQQYEMMRLTGFEFTFDVDTTKLPCGMNAALYLSEMDATGARSRLNPGGAYYGTGYCDAQCFVTPFINGIGNIEGKGSCCNEMDIWEANSRSQSIAPHPCNKQGLYMCSGQECEFDGVCDEWGCTWNPYKVNVTDYYGRGPQFKVDTTRPFTVITQFPADQNGKLTSIHRMYVQDGKLIEAHTVNLPGYPQVNALNDDFCRATGAATKYLELGATAGMGEALRRGMVLAMSIWWDESGFMNWLDSGESGPCNPNEGNPQNIRQIEPEPEVTYSNLRWGEIGSTYKHNLKGGWTGRN
B3: in data set [3], the “pI of the purified protein” value was approximately 5.5.

B4: Ta Cel7A + Ct CBD: Thermoascus aurantiacus Cel7A fused to linker and CBD of Chaetomium thermophilum Cel7A, SEQ ID NO: 30 (protein)
chain: MYQRALLFSFFLAAARAQQAGTVTAENHPSLTWQQCSSGGSCTTQNGKVVIDANWRWVHTTSGYTNCYTGNTWDTSICPDDVTCAQNCALDGADYSGTYGVTTSGNALRLNFVTQSSGKNIGSRLYLLQDDTTYQIFKLLGQEFTFDVDVSNLPCGLNGALYFVAMDADGGLSKYPGNKAGAKYGTGYCDSQCPRDLKFINGQANVEGWQPSANDPNAGVGNHGSCCAEMDVWEANSISTAVTPHPCDTPGQTMCQGDDCGGTYSSTRYAGTCDPDGCDFNPYRQGNHSFYGPGQIVDTSSKFTVVTQFITDDGTPSGTLTEIKRFYVQNGKVIPQSESTISGVTGNSITTEYCTAQKAAFGDNTGFFTHGGLQKISQALAQGMVLVMSLWDDHAANMLWLDSTYPTDADPDTPGVARGTCPTTSGVPADVESQYPNSYVIYSNIKVGPIGSTVPGLDGSNPGNPTTTVVPPASTSTSRPTSSTSSPVSTPTGQPGGCTTQKWGQCGGIGYTGCTNCVAGTTCTQLNPWYSQCL
B4: the “Hydrolysis products as reducing sugars, Avicel” value in data set [4] is 4.9 mg/mL. Also, the “Hydrolysis products as reducing sugars, WILLOW” value amounted to 5.6 mg/mL in data set [5] (EGI, XYL, AXE) and 3.7 mg/mL in data set [5]. For the same molecule, the “Hydrolysis products as reducing sugars, WOCS” value in data set [6] (EGI, XYL, AXE) is 7.2 mg/mL; in data set [6], 4.6 mg/mL. The “Hydrolysis products as reducing sugars, SPRUCE” value in data set [7] was 3.7 mg/mL.
